Tests used:
[1] = biological target: MapSPARTA (binary complex of TIR-APAZ and Ago), wild type (Maribacter polysiphoniae); assay: cryo-EM structure
[2] = biological target: MapSPARTA (binary complex of TIR-APAZ and Ago), wild type (Maribacter polysiphoniae); assay: cryo-EM structure; remark: listed apart in the source
[3] = biological target: MapSPARTA (binary complex of TIR-APAZ and Ago), wild type (Maribacter polysiphoniae); assay: SEC
[4] = biological target: MapSPARTA (binary complex of TIR-APAZ and Ago), wild type (Maribacter polysiphoniae); assay: cryo-EM structure; remark: listed apart in the source
[5] = biological target: MapSPARTA V113R/D106R/D111R (TIR-APAZ triple mutant with Ago) (Maribacter polysiphoniae); assay: SEC
[6] = biological target: MapSPARTA V113R (TIR-APAZ V113R with Ago) (Maribacter polysiphoniae); assay: SEC
[7] = biological target: T1, MapSPARTA WT (Ago + TIR-APAZ) (Maribacter polysiphoniae, UniProt A0A316E3U6;A0A316E683 1-507;1-450); assay: BLI
T1 sequence 1: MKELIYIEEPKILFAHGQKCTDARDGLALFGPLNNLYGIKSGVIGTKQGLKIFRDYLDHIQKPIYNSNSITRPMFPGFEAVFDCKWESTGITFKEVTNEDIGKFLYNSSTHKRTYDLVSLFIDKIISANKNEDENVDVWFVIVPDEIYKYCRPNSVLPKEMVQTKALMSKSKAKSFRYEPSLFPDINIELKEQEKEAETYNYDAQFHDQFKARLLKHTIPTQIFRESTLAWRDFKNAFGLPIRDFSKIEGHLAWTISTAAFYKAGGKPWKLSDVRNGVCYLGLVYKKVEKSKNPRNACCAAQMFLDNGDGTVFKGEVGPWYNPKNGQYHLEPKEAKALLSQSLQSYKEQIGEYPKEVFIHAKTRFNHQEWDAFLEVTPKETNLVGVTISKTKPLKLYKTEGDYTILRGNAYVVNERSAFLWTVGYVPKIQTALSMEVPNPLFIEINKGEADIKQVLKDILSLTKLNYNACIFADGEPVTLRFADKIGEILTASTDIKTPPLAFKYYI
T1 sequence 2: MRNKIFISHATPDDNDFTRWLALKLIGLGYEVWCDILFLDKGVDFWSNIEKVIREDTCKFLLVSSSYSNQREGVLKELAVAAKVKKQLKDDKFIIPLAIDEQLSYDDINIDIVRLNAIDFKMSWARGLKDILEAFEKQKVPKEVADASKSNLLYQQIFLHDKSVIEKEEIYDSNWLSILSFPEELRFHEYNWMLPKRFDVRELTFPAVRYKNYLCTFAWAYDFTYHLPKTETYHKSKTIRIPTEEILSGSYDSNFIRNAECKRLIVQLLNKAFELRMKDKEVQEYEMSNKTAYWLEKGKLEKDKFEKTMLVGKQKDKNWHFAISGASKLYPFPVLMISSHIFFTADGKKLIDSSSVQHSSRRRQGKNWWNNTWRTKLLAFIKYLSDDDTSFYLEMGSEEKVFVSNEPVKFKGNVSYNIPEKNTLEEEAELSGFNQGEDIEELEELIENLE

## MapSPARTA (binary complex of TIR-APAZ and Ago), wild type
[1]
  stoichiometry N: 4
[2]
  stoichiometry N: 4
[3]
  stoichiometry N: 4
[4]
  stoichiometry N: 2

## MapSPARTA V113R/D106R/D111R (TIR-APAZ triple mutant with Ago) (complex)
[5]
  stoichiometry N: 2

## MapSPARTA V113R (TIR-APAZ V113R with Ago) (complex)
[6]
  stoichiometry N: 2

B1: guide RNA + biotinylated target DNA (BLI) (DNA:RNA)
RNA: UGACGGCUCUAAUCUAUUAGU
DNA: CAACTAATAGATTAGAGCCGTCAAT
modifications: 5'-phosphate on guide RNA
[7]
  Kd: 13.5 nM
